Numbering of substitutions follows the chain as printed.
B1: ZY0EP0-C07 human IgG1-TM (antibody, V domains shown)
VH: QVQLVESGGVLVKPGGSLRLSCAASGFTLSDYYMSWIRQAPGMGLEWVSYISSSGSTIYYTDSVKGRFTISRDSAKNSLYLQMNSLRAEDTAVYYCARDGVGFDYWGQGTLVTVSS
VL: EIVLTQSPGTLSLFPGERATLSCRASQSVSSSYLAWYQQKPGQSPRLLIYAASSRATGIPDRFSGSGSGTDFTLTISRLEPEDFAVYYCQQYGSSPLYTFGQGTKLEIK
notes: also called ZY0EPO-C07
B2: ZY0EQD-E02 human IgG1-TM (antibody, V domains shown)
VH: QVQLQQWGAGLLKPSETLSLTCAVYGGSFSGYYWNWIRQPPGKGLEWIGEINHSGSTSYNPSLKSRVTISVDTSKNQFSLKLSSVTAADTAVYYCARVLYNWNVDSWGQGTLVTVSS
VL: DIQMTQSPSSLSASVGDRVTITCRASQDIRNDVGWYQQKPGKAPKRLIYAASRLQSGVPSRFSGSGSGTEFTLTISSLQPEDFATYYCLQHNSYPRTFGQGTKVEIK
B3: ZY0EPQ-E02 human IgG1-TM (antibody, V domains shown)
VH: B2 VH with S58N, S70L, V98N, V104L
VL: B2 VL with D28G, V33L, K42R, A50V, R53S
B4: ZY0EOB-F05 human IgG1-TM (antibody, V domains shown)
VH: QVQLQESGPGLVKPSQTLSLTCTVSDGSISSGGYYWSWIRQHPGKGLEWIGNIYYSGSTYYNPSLKSRVTISVDTSKNQFSLKLNSVTAADTAVYYCATEKALATVTPSGYENYYTVDVWGQGTTVTVSS
VL: DIQLTQSPSFLSASVGDRVTITCWASQGISSYLAWYQQKPGKAPKLLIYAASTLQSGVPSRFSGSGSGTEFTLTISSLQPEDFATYYCQHLNSYPLTFGGGTKVEIK

Legend:
[1] = biological target: T1, huB7-H1 (human, UniProt Q9NZQ7 19-238); assay: ELISA
T1 construct: Sourced antigen; construct not described; also called Human B7-H1
T1 sequence (Q9NZQ7 19-238 limits assumed): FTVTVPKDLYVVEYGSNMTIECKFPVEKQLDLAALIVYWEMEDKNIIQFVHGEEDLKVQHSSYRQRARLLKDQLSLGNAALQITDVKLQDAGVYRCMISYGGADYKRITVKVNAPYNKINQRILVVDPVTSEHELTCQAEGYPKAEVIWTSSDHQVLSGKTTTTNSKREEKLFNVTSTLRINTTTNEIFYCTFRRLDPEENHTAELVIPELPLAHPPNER

[2] = biological target: T2, huB7-H2 (human, UniProt O75144 19-258); assay: ELISA
T2 construct: Sourced antigen; construct not described; also called Human B7-H2
T2 sequence (looked up): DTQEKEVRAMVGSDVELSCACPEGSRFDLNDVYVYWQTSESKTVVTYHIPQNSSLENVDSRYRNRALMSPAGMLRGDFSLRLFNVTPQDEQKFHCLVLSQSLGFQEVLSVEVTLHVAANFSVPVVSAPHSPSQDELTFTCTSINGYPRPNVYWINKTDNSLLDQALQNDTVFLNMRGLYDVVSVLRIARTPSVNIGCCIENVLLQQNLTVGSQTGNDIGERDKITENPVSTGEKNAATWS

[3] = biological target: T3, huB7-H3 (human, UniProt Q5ZPR3 29-461, limits assumed); assay: ELISA
T3 construct: Sourced antigen; construct not described; also called Human B7-H3
T3 sequence (looked up): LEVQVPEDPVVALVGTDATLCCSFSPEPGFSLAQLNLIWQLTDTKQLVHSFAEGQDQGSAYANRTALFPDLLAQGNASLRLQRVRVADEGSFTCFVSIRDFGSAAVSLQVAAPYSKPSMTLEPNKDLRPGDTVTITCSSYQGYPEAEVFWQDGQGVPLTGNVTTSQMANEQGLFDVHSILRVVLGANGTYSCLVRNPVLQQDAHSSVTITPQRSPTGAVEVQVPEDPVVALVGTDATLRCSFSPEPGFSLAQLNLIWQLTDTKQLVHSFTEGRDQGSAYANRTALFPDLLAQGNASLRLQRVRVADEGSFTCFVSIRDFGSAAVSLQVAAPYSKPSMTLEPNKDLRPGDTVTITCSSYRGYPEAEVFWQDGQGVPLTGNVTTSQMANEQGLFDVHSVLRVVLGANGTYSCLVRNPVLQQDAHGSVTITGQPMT

[4] = biological target: T4, huBTN1A1 (human, UniProt Q13410 27-242, limits assumed); assay: ELISA
T4 construct: Sourced antigen; construct not described; also called Human BTN1A1
T4 sequence (looked up): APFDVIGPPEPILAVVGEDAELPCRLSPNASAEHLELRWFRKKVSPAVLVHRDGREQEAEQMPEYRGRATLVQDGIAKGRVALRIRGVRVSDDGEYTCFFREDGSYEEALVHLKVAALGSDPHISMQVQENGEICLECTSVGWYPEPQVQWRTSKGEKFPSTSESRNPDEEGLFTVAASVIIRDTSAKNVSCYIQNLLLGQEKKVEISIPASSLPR

[5] = biological target: T5, huBTN2A1 (human, UniProt Q7KYR7 29-248, limits assumed); assay: ELISA
T5 construct: Sourced antigen; construct not described; also called Human BTN2A1
T5 sequence (looked up): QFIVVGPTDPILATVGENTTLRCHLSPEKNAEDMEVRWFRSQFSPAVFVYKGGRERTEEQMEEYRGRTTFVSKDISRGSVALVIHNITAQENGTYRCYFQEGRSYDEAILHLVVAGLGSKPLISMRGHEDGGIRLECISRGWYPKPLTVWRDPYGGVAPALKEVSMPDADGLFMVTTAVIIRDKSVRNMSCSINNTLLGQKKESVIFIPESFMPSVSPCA

[6] = biological target: T6, huBTNL3 (human, UniProt Q6UXE8 18-237, limits assumed); assay: ELISA
T6 construct: Sourced antigen; construct not described; also called Human BTNL3
T6 sequence (looked up): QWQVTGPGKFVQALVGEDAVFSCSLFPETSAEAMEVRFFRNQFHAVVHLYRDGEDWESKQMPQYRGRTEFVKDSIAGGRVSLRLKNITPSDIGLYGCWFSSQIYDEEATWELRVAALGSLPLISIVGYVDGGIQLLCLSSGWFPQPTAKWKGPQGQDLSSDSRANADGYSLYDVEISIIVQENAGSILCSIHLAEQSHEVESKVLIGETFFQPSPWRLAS

[7] = biological target: T7, human B7-H4 on cells (human, UniProt Q7Z7D3 25-282); assay: cell-based or functional assay
T7 sequence: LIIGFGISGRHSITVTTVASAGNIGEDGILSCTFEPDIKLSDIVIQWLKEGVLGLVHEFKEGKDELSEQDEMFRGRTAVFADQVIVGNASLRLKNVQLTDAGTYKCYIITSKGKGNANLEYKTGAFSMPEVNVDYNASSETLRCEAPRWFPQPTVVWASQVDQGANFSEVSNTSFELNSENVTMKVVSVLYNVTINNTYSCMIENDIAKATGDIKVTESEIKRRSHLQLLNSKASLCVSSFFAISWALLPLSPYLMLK

[8] = biological target: T8, Human B7-H4 ECD-Flag-His10 (monomeric) (human, UniProt Q7Z7D3 25-259); assay: Octet BLI, hIgG1-TM on Protein G (n = 4-7)
T8 construct: Minimally biotinylated for KinExA; also called hB7H4-ECD-Flag-His10; B7-H4-FLAG
T8 sequence: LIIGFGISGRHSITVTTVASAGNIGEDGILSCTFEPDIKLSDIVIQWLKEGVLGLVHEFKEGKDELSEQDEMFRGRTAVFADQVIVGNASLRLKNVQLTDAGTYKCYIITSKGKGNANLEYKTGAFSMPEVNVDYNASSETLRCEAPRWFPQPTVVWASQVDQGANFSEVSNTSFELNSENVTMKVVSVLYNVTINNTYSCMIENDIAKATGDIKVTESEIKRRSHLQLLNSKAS

[9] = biological target: T9, Murine B7-H4 ECD-Flag-His10 (monomeric) (mouse, UniProt Q7TSP5 25-257); assay: Octet BLI, hIgG1-TM on Protein G (n = 4-7)
T9 construct: extracellular domain; also called FlagHis10 murine B7-H4
T9 sequence (looked up): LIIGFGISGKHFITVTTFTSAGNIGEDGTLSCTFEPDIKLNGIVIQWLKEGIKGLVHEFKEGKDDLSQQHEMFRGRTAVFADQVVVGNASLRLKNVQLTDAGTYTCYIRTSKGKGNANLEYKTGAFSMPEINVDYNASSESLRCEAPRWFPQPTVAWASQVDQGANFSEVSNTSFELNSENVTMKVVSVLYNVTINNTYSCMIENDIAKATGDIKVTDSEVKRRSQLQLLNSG

[10] = biological target: T10, Human B7H4 ECD (SV), splice variant, 10His_FLAG (human); assay: Octet BLI, hIgG1-TM on Protein G (n = 4-7)
T10 construct: also called B7-H4-SV

Binder | binding result [1] | binding result [2] | binding result [3] | binding result [4] | binding result [5] | binding result [6] | ZAP % Viability, OVCAR4 [7] [%] | ZAP % Viability, SKBR3 [7] [%] | ZAP IC50 (M), OVCAR4 [7] [M] | ZAP IC50 (M), SKBR3 [7] [M] | Kd [8] [nM] | koff [8] [s⁻¹] | kon [8] [M⁻¹ s⁻¹] | Kd [9] [nM] | koff [9] [s⁻¹] | kon [9] [M⁻¹ s⁻¹] | Kd [10] [nM] | koff [10] [s⁻¹] | kon [10] [M⁻¹ s⁻¹]
B1 | no binding | no binding | no binding | no binding | no binding | no binding | 57 | 72 | 1e-08 | 4e-09 | 9.4 | 0.000397 | 41600 | 11 | 0.000524 | 43000 |  |  | 
B2 | no binding | no binding | no binding | no binding | no binding | no binding | 40 | 48 | 2e-08 | 1e-08 | 14.4 | 0.00278 | 193000 | 621 | 0.126 | 203000 | 801 | 0.00269 | 3360
B3 | no binding | no binding | no binding | no binding | no binding | no binding | 46 | 65 | 2e-08 | 4e-09 | 25.7 | 0.00182 | 70900 | 396 | 0.0304 | 76700 | 1660 | 0.00229 | 1380
B4 | no binding | no binding | no binding | no binding | no binding | no binding | 67 | 84 |  |  | 13.4 | 0.000355 | 26500 | 25 | 0.000476 | 18700 | 174 | 0.000584 | 3350

Source: US20240239894A1 (AstraZeneca / MedImmune, published 2024)
